Experiment [1] concerns the target T1, myostatin (Homo sapiens, UniProt O14793).
T1 construct: To produce mature myostatin, the pooled promyostatin was enzymatically cleaved between the propeptide and mature myostatin C terminal; made in house
T1 sequence (O14793 267-375): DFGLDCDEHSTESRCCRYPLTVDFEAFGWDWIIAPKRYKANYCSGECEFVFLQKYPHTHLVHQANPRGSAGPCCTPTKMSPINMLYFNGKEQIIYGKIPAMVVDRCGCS
The experiment is described as follows: C2C12 pMARE-luc cell based myostatin activity assay. From the text:
The antagonists including the binding agents described herein can be tested for their ability to bind myostatin and inhibit or block myostatin activity. Any number of assays or animal tests may be used to determine the ability of the agent to inhibit or block myostatin activity. Several assays used for characterizing the peptides and peptibodies of the present invention are described in the Examples below. One assay is the C2C12 pMARE-luc assay which makes use of a myostatin-responsive cell line (C2C12 myoblasts) transfected with a luciferase reporter vector containing myostatin/activin response elements (MARE). Exemplary peptibodies are assayed by pre-incubating a series of peptibody dilutions with myostatin, and then exposing the cells to the incubation mixture. The resulting luciferase activity is determined, and a titration curve is generated from the series of peptibody dilutions. The IC50 (the concentration of peptibody to achieve 50% inhibition of myostatin activity as measured by luciferase activity) was then determined. A second assay described below is a BIAcore® assay to determine the kinetic parameters ka (association rate constant), kd (dissociation rate constant), and KD (dissociation equilibrium constant) for the myostatin binding agents and other antagonists such as antibodies capable of binding myostatin and its receptor. Lower dissociation equilibrium constants (KD, expressed in nM) indicated a greater affinity of the peptibody for myostatin. […] These assays are described in Example 3.
C2C12 Cell Based Myostatin Activity Assay
A myostatin-responsive reporter cell line was generated by transfection of C2C12 myoblast cells (ATCC No: CRL-1772) with a pMARE-luc construct. The pMARE-luc construct was made by cloning twelve repeats of the CAGA sequence, representing the myostatin/activin response elements (Dennler et al. EMBO 17: 3091-3100 (1998)) into a pLuc-MCS reporter vector (Stratagene cat #219087) upstream of the TATA box. The myoblast C2C12 cells naturally express myostatin/activin receptors on its cell surface. When myostatin binds the cell receptors, the Smad pathway is activated, and phosphorylated Smad binds to the response element (Macias-Silva et al. Cell 87:1215 (1996)), resulting in the expression of the luciferase gene. Luciferase activity is then measured using a commercial luciferase reporter assay kit (cat # E4550, Promega, Madison, Wis.) according to manufacturer's protocol. A stable line of C2C12 cells that had been transfected with pMARE-luc (C2C12/pMARE clone #44) was used to measure myostatin activity according to the following procedure.
Equal numbers of the reporter cells (C2C12/pMARE clone #44) were plated into 96 well cultures. A first round screening using two dilutions of peptibodies was performed with the myostatin concentration fixed at 4 nM. Recombinant mature myostatin was preincubated for 2 hours at room temperature with peptibodies at 40 nM and 400 nM respectively. The reporter cell culture was treated with the myostatin with or without peptibodies for six hours. Myostatin activity was measured by determining the luciferase activity in the treated cultures. This assay was used to initially identify peptibody hits that inhibited the myostatin signaling activity in the reporter assay. Subsequently, a nine point titration curve was generated with the myostatin concentration fixed at 4 nM. The myostatin was preincubated with each of the following nine concentrations of peptibodies: […], 0.4 nM, 4 nM, 20 nM, 40 nM, 200 nM, 400 nM, 2 uM and 4 uM for two hours before adding the mixture to the reporter cell culture. The IC50 values were for a number of exemplary peptibodies are provided in Tables III and for affinity matured peptibodies, in Table VIII.

Experiment [2] addresses T1, myostatin. Kind of experiment: BIAcore affinity analysis on immobilized myostatin. The format is binding. To be noted: Biacore assay. From the text: The antagonists including the binding agents described herein can be tested for their ability to bind myostatin and inhibit or block myostatin activity. Any number of assays or animal tests may be used to determine the ability of the agent to inhibit or block myostatin activity. Several assays used for characterizing the peptides and peptibodies of the present invention are described in the Examples below. One assay is the C2C12 pMARE-luc assay which makes use of a myostatin-responsive cell line (C2C12 myoblasts) transfected with a luciferase reporter vector containing myostatin/activin response elements (MARE). Exemplary peptibodies are assayed by pre-incubating a series of peptibody dilutions with myostatin, and then exposing the cells to the incubation mixture. The resulting luciferase activity is determined, and a titration curve is generated from the series of peptibody dilutions. The IC50 (the concentration of peptibody to achieve 50% inhibition of myostatin activity as measured by luciferase activity) was then determined. […]
Direct binding assays were used to screen and rank the peptibodies in order of their ability to bind to immobilized myostatin. […] Peptibody binding kinetic parameters including ka (association rate constant), kd (dissociation rate constant) and KD (dissociation equilibrium constant) were determined using the BIA evaluation 3.1 computer program (Biacore, Inc.). […]
In general terms: SPR reads the build-up and loss of mass on a sensor chip optically.

The target in experiment [3] is T2, myostatin binding to ActRIIB/Fc (Homo sapiens, UniProt O14793).
T2 construct: To produce mature myostatin, the pooled promyostatin was enzymatically cleaved between the propeptide and mature myostatin C terminal; host or cells: myostatin: E. coli K-12 strain 2596; ActRIIB/Fc purchased
T2 sequence (O14793 267-375): T1 sequence (O14793 267-375)
The experiment is described as follows: Blocking assay on ActRIIB/Fc surface (BIAcore). As for the experimental part: Blocking Assay on ActRIIB/Fc Surface
Blocking assays were carried out using immobilized ActRIIB/Fc (R&D Systems, Minneapolis, Minn.) and myostatin in the presence and absence of peptibodies with the BIAcore® assay system. […] Baseline myostatin-ActRIIB/Fc binding was first determined in the absence of any peptibody.
For early screening studies, peptibodies were diluted to 4 nM, 40 nM, and 400 nM in sample buffer and incubated with 4 nM myostatin (also diluted in sample buffer). The peptibody:ligand mixtures were allowed to reach equilibrium at room temperature (at least 5 hours) and then were injected over the immobilized ActRIIB/Fc surface for 20 to 30 minutes at a flow rate of 10 μl/min. […] Selected peptibodies were further characterized using the blocking assay of a full concentration series in order to derive IC50 values (for neutralizing peptibodies) or EC50 (for non-neutralizing peptibodies). The peptibody samples were serially diluted from 200 nM to […] in sample buffer and incubated with […] myostatin at room temperature to reach equilibrium (minimum of five hours) before injected over the immobilized ActRIIB/Fc surface for 20 to 30 minutes at a flow rate of 10 μl/min. Following the sample injection, bound ligand was allowed to dissociate from the receptor for 3 minutes.

Experiment [4] addresses T1, myostatin. Kind of experiment: Epitope binning for peptibodies (BIAcore). It counts as binding. As for the experimental part: Epitope Binning for Peptibodies
A purified peptibody was immobilized on a BIAcore chip to capture myostatin before injection of a second peptibody, and the amount of secondary peptibody bound to the captured myostatin was determined Only peptibodies with distinct epitopes will bind to the captured myostatin, thus enabling the binning of peptibodies with similar or distinct epitope binding properties.

Where no end group is shown, it is not given here.

Consider “TN8-19: peptibody; peptide QGHCTRWPWMCPPY (cysteine pairing not given here; also: Fc fusion peptibody)”, for which the “inhibition of myostatin activity in cell-based assay” value with myostatin [1] is given as “inhibit myostatin activity”. In addition, the “IC50 of peptibody compared with peptide (FIG. 1)” value in the experiment with myostatin [1] (C2C12 based assay) was “significantly less than that of the peptide”. In the experiment with myostatin [1] (pMARE luc cell-based assay, myostatin 4 nM), this substance displayed a 50% inhibitory concentration (IC50) of around 23 nM. The equilibrium dissociation constant (Kd) with myostatin [2] was around 2 nM. The “blocking of myostatin/ActRIIB/Fc interactions” value in experiment [3] is recorded as “does not block”. The “epitope on myostatin (binning)” value with myostatin [4] is listed as “bind to different epitopes”.

One may read the IC50 as the concentration needed to halve the response being measured. Low readings indicate inhibition by little substance, high ones a need for much substance. Usually Kd stands for the free concentration of one partner at which half of the binding sites on the other are occupied at equilibrium, for simple one-to-one binding. Higher therefore signals weaker binding.

These data come from patent US20160038588A1, “Myostatin Antagonism in Human Subjects” (AMGEN INC., priority 2013, published 2016).
